In doi:10.1101/2022.04.14.487897 (bioRxiv, 2022):

B1: full-length human p66Shc (wildtype) (natural protein, UniProt P29353-1 1-583, looked up)
chain: MDLLPPKPKYNPLRNESLSSLEEGASGSTPPEELPSPSASSLGPILPPLPGDDSPTTLCSFFPRMSNLRLANPAGGRPGSKGEPGRAADDGEGIVGAAMPDSGPLPLLQDMNKLSGGGGRRTRVEGGQLGGEEWTRHGSFVNKPTRGWLHPNDKVMGPGVSYLVRYMGCVEVLQSMRALDFNTRTQVTREAISLVCEAVPGAKGATRRRKPCSRPLSSILGRSNLKFAGMPITLTVSTSSLNLMAADCKQIIANHHMQSISFASGGDPDTAEYVAYVAKDPVNQRACHILECPEGLAQDVISTIGQAFELRFKQYLRNPPKLVTPHDRMAGFDGSAWDEEEEEPPDHQYYNDFPGKEPPLGGVVDMRLREGAAPGAARPTAPNAQTPSHLGATLPVGQPVGGDPEVRKQMPPPPPCPGRELFDDPSYVNVQNLDKARQAVGGAGPPNPAINGSAPRDLFDMKPFEDALRVPPPPQSVSMAEQLRGEPWFHGKLSRREAEALLQLNGDFLVRESTTTPGQYVLTGLQSGQPKHLLLVDPEGVVRTKDHRFESVSHLISYHMDNHLPIISAGSELCLQQPVERKL
modifications: Alexa 647 label (only in the MST with cytochrome c, where p66Shc was the labelled protein)

What was measured:
mortalin (HSPA9) [1] = target: mortalin (HSPA9) (UniProt P38646); test: MST
mortalin (HSPA9) (UniProt P38646), sequence (P38646 47-679): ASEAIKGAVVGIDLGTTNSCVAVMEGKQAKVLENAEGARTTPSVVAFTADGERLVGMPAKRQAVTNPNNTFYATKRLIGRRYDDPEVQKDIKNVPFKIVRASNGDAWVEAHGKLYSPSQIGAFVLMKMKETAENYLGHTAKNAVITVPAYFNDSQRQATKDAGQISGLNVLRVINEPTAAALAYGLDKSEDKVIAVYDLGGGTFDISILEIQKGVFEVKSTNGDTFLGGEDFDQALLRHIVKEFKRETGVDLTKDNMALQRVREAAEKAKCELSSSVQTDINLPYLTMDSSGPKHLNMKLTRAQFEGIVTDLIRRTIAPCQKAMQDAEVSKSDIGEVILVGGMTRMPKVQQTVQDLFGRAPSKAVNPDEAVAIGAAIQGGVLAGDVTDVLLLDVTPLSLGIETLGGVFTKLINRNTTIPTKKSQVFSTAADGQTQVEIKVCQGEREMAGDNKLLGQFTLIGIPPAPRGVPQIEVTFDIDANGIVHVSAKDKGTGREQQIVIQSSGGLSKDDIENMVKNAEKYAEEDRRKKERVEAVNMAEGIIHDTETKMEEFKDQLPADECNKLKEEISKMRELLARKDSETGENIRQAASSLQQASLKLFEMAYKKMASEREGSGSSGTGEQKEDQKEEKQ

[2] = target: H26Y cytochrome c (globular structure, high peroxidase activity) (UniProt P00004); test: enzyme inhibition
[3] = target: ferrous cytochrome c (Fe2+), horse heart (horse, UniProt P00004 1-105, heme iron ferrous (Fe^2+)); test: enzyme inhibition
ferrous cytochrome c (Fe2+), horse heart, sequence (P00004 whole entry): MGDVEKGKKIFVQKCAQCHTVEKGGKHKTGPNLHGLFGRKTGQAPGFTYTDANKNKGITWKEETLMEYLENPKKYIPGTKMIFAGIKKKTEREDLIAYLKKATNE

mortalin (HSPA9) [4] = target: mortalin (HSPA9) (UniProt P38646 47-679, Alexa 647 dye (NanoTemper) / NT-647 label); test: MST
mortalin (HSPA9) (UniProt P38646 47-679, Alexa 647 dye (NanoTemper) / NT-647 label), sequence (P38646 47-679): as the sequence (P38646 47-679) above

Row | Molecule | Kd (mortalin (HSPA9) [1]) | Ki [2] | Ki [3] | Kd (mortalin (HSPA9) [4])
1 | Bcl-2 (from UniProt P10415 1-239) (natural protein) | 171 nM |  |  | 
2 | B1 |  | 3540 nM | 1430 nM | 858 nM
